Reference: patent publication US20160289298A1 (ACCELERON PHARMA, published 2016)
Residue numbers refer to the chain shown, from its start.

T1: BMP6 (UniProt P22004 382-513, limits assumed)
T1 sequence (looked up): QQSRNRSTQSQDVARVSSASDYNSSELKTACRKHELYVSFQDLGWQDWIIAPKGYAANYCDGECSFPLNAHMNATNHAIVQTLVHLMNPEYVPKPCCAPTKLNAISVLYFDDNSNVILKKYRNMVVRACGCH

T2: BMP7 (UniProt P18075 293-431)
T2 construct: also called OP-1
T2 sequence (looked up): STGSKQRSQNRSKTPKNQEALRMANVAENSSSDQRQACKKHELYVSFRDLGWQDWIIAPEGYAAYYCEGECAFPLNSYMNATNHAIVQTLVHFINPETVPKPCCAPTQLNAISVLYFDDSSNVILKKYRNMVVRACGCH

T3: BMP15 (UniProt O95972 268-392)
T3 construct: also called GDF9b
T3 sequence (looked up): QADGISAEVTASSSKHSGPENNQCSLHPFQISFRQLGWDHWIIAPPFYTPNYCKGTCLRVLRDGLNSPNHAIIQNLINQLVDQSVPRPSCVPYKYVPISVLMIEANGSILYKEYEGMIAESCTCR

T4: BMP5 (UniProt P22003 317-454, limits assumed)
T4 sequence (looked up): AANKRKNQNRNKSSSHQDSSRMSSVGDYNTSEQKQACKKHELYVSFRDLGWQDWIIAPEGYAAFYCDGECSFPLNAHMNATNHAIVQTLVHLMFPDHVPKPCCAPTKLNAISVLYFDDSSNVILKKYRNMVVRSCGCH

T5: activin A (UniProt P08476 311-426)
T5 sequence (looked up): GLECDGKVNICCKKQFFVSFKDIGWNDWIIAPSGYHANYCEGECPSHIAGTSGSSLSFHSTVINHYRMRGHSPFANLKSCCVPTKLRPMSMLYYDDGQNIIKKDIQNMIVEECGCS

T6: GDF8 (UniProt O14793 267-375)
T6 construct: also called myostatin
T6 sequence (looked up): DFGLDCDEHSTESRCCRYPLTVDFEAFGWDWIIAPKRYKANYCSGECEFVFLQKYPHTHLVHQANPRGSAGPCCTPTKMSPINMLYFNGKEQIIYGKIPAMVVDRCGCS

T7: BMP4 (UniProt P12644 293-408)
T7 sequence (looked up): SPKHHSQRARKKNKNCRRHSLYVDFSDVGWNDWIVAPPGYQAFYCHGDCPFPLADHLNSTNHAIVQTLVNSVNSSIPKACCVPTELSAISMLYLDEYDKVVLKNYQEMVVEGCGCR

B1: BMPRII-Fc homodimeric complex (Fc fusion, UniProt Q13873 27-150, looked up)
chain: SQNQERLCAFKDPYQQDLGIGESRISHENGTILCSKGSTCYGLWEKSKGDINLVKQGCWSHIGDPQECHYEECVVTTTPPSIQNGTYRFCCCSTDLCNVNFTENFPPPDTTPLSPPHSFNRDET
notes: also called homodimeric BMPRII-Fc; not shown: linker and Fc portion of the homodimer
B2: ALK3-Fc homodimeric complex (Fc fusion, UniProt P36894 24-152, looked up)
chain: QNLDSMLHGTGMKSDSDQKKSENGVTLAPEDTLPFLKCYCSGHCPDDAINNTCITNGHCFAIIEEDDQGETTLASGCMKYEGSDFQCKDSPKAQLRRTIECCRTNLCNQYLQPTLPPVVIGPFFDGSIR
notes: also called homodimeric ALK3-Fc; not shown: linker and Fc portion of the homodimer
B3: BMP2 (ligand, UniProt P12643 283-396, looked up)
chain: QAKHKQRKRLKSSCKRHPLYVDFSDVGWNDWIVAPPGYHAFYCHGECPFPLADHLNSTNHAIVQTLVNSVNSKIPKACCVPTELSAISMLYLDENEKVVLKNYQDMVVEGCGCR
B4: activin B (ligand, UniProt P09529 293-407, looked up)
chain: GLECDGRTNLCCRQQFFIDFRLIGWNDWIIAPTGYYGNYCEGSCPAYLAGVPGSASSFHTAVVNQYRMRGLNPGTVNSCCIPTKLSTMSMLYFDDEYNIVKRDVPNMIVEECGCA
B5: single-arm ActRIIB-Fc:Fc heterodimeric protein complex (Fc fusion)
chain 1: GRGEAETRECIYYNANWELERTNQSGLERCEGEQDKRLHCYASWRNSSGTIELVKKGCWLDDFNCYDRQECVATEENPQVYFCCCEGNFCNERFTHLPEAGGPEVTYEPPPTAPTGGGTHTCPPCPAPELLGGPSVFLFPPKPKDTLMISRTPEVTCVVVDVSHEDPEVKFNWYVDGVEVHNAKTKPREEQYNSTYRVVSVLTVLHQDWLNGKEYKCKVSNKALPAPIEKTISKAKGQPREPQVYTLPPSRKEMTKNQVSLTCLVKGFYPSDIAVEWESNGQPENNYKTTPPVLKSDGSFFLYSKLTVDKSRWQQGNVFSCSVMHEALHNHYTQKSLSLSPGK
chain 2: SNTKVDKRVTGGGTHTCPPCPAPELLGGPSVFLFPPKPKDTLMISRTPEVTCVVVDVSHEDPEVKFNWYVDGVEVHNAKTKPREEQYNSTYRVVSVLTVLHQDWLNGKEYKCKVSNKALPAPIEKTISKAKGQPREPQVYTLPPSREEMTKNQVSLTCLVKGFYPSDIAVEWESNGQPENNYDTTPPVLDSDGSFFLYSDLTVDKSRWQQGNVFSCSVMHEALHNHYTQKSLSLSPGK
notes: C-terminal lysine optionally removed; also called single-arm ActRIIB-Fc heterodimeric complex
B6: single-arm ALK3-Fc:Fc heterodimeric protein complex (Fc fusion)
chain 1: GAQNLDSMLHGTGMKSDSDQKKSENGVTLAPEDTLPFLKCYCSGHCPDDAINNTCITNGHCFAIIEEDDQGETTLASGCMKYEGSDFQCKDSPKAQLRRTIECCRTNLCNQYLQPTLPPVVIGPFFDGSIRTGGGTHTCPPCPAPELLGGPSVFLFPPKPKDTLMISRTPEVTCVVVDVSHEDPEVKFNWYVDGVEVHNAKTKPREEQYNSTYRVVSVLTVLHQDWLNGKEYKCKVSNKALPAPIEKTISKAKGQPREPQVYTLPPSREEMTKNQVSLTCLVKGFYPSDIAVEWESNGQPENNYDTTPPVLDSDGSFFLYSDLTVDKSRWQQGNVFSCSVMHEALHNHYTQKSLSLSPG
chain 2: B5 chain 2 with E147K, D183K, D190K, D200K
notes: also called single-arm ALK3-Fc heterodimer
B7: GDF11 (ligand, UniProt O95390 299-407, looked up)
chain: NLGLDCDEHSSESRCCRYPLTVDFEAFGWDWIIAPKRYKANYCSGQCEYMFMQKYPHTHLVQQANPRGSAGPCCTPTKMSPINMLYFNDKQQIIYGKIPGMVVDRCGCS
notes: also called BMP11
B8: BMP10 (ligand, UniProt O95393 317-424, looked up)
chain: NAKGNYCKRTPLYIDFKEIGWDSWIIAPPGYEAYECRGVCNYPLAEHLTPTKHAIIQALVHLKNSQKASKACCVPTKLEPISILYLDKGVVTYKFKYEGMAVSECGCR
B9: BMP9 (ligand, UniProt Q9UK05 320-429, looked up)
chain: SAGAGSHCQKTSLRVNFEDIGWDSWIIAPKEYEAYECKGGCFFPLADDVTPTKHAIVQTLVHLKFPTKVGKACCVPTKLSPISVLYKDDMGVPTLKYHYEGMSVAECGCR
notes: also called GDF2
B10: GDF6 (ligand, UniProt Q6KF10 336-455, looked up)
chain: TAFASRHGKRHGKKSRLRCSKKPLHVNFKELGWDDWIIAPLEYEAYHCEGVCDFPLRSHLEPTNHAIIQTLMNSMDPGSTPPSCCVPTKLTPISILYIDAGNNVVYKQYEDMVVESCGCR
notes: also called BMP13

Columns and labels:
BMP6 = target: T1, BMP6; test: SPR (Biacore), receptor-Fc captured by anti-Fc antibody, ligand injected
Procedure: (§1) Ligands were injected and allowed to flow over the captured receptor protein.

BMP7 = target: T2, BMP7; test: as above
Procedure: as §1

BMP15 = target: T3, BMP15; test: as above
Procedure: as §1

BMP5 = target: T4, BMP5; test: as above
[1] = target: B1; test: as above
Procedure: as §1

activin A = target: T5, activin A; test: SPR (Biacore), legend of FIG. 6
Procedure: as §1

activin B = target: B4; test: SPR (Biacore), legend of FIG. 6
Procedure: as §1

GDF8 = target: T6, GDF8; test: SPR (Biacore), legend of FIG. 6
Procedure: as §1

GDF11 = target: B7; test: SPR (Biacore), legend of FIG. 6
Procedure: as §1

BMP2 = target: B3; test: SPR (Biacore), receptor-Fc captured by anti-Fc antibody, ligand injected
BMP4 = target: T7, BMP4; test: as above
[2] = target: B2; test: as above
[3] = target: T8, ActRIIA-Fc homodimeric complex (UniProt P27037 21-135); test: as above
T8 construct: also called homodimeric ActRIIA-Fc; not shown: linker and Fc portion of the homodimer
T8 sequence (P27037 21-135, one chain of several): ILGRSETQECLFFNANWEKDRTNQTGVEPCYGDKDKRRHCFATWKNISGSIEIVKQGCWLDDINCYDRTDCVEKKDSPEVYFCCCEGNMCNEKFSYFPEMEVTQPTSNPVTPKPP

Binder: B1
- Kd (BMP6): > 8.9 nM
- Kd (BMP7): > 38 nM
- Kd (BMP15): 0.28 nM
- koff (BMP15): 0.0028 s⁻¹
- kon (BMP15): 9.9e+06 M⁻¹ s⁻¹

Binder: B2
- binding result (BMP5): binds

Binder: B3
- Kd [1]: > 2000 nM

Binder: B4
- Kd [1]: 3.8 nM
- koff [1]: 0.075 s⁻¹
- kon [1]: 2e+07 M⁻¹ s⁻¹

Binder: B5
- binding result (activin A): binds
- binding result (activin B): binds
- binding result (GDF8): binds
- binding result (GDF11): binds

Binder: B6
- binding result (BMP2): binds
- binding result (BMP4): binds
- binding result (BMP5): binds

Binder: B7
- binding result [2]: no binding
- binding result [3]: binds

Binder: B8
- binding result [2]: no binding
- binding result [3]: binds
- Kd [1]: 0.098 nM
- koff [1]: 0.0025 s⁻¹
- kon [1]: 2.6e+07 M⁻¹ s⁻¹

Binder: B9
- Kd [1]: 2.1 nM
- koff [1]: 0.026 s⁻¹
- kon [1]: 1.2e+07 M⁻¹ s⁻¹

Binder: B10
- Kd [1]: > 88 nM
